Assay results from patent publication US8962271B2, “Fructosyl peptidyl oxidase” (Roche Diagnostics Operations, Inc., priority 2009, dated 2015).
Where two headings read alike, the source gives them in different places. Values belong to the molecule of their own block, whether it stands above or below them.

Experiments:
[1] = tested on: fructosyl peptidyl oxidase FPOX-C (Coniochaeta sp. NISL 9330; GenBank: BAD00186.1); details: cited from earlier work
[2] = tested on: fructosyl peptidyl oxidase FPOX-E (Eupenicillum terrenum ATCC 18547; GenBank: BAD00185.1); details: cited from earlier work
[3] = tested on: CC(C)[C@H](NCC(=O)[C@@H](O)[C@H](O)[C@H](O)CO)C(=O)O; test: purified protein, by the assay type; details: other: substrate FV; apparent Km; 4A.A/TODB/POD
[4] = tested on: CC(C)[C@H](NCC(=O)[C@@H](O)[C@H](O)[C@H](O)CO)C(=O)N[C@@H](Cc1cnc[nH]1)C(=O)O; test: purified protein, by the assay type; details: other: substrate FVH; apparent Km; 4A.A/TODB/POD
[5] = Oxidase activity, 4AA/TODB/POD system, substrate FVH; format: biochemical
Protocol: (§1) The water-soluble fraction was examined for the oxidase activity using a POD/TODB/4A.A. method with three substrates: fructosyl valine (FV), fructosyl lysine (FK), and fructosyl valyl histidine (FVH).
(§2) The oxidase activity was assayed using 4A.A/TODB/POD with varying concentrations of substrates, FV, FK and FVH. The absorbance at 546 nm was monitored. Typical Michaelis-Menten curves were obtained with FV and FVH, but not with FK. […] A high VmaxKm^−1 value for FV (42.8 U mg^−1 mM^−1) indicates high specificity toward FV of this enzyme. It should be noted that VmaxKm^−1 value for FVH is also considerable (14.7 U mg^−1 mM^−1, 34% of VmaxKm^−1 for FV). This activity toward FVH of PnFPOX will be beneficial in the enzyme-based measurement of HbA1c. For comparison, the oxidase activity of known fructosyl peptidyl oxidases (FPOX-C and FPOX-E) was also included in the table (Hirokawa et al. ibid).
(§3) The oxidase activity of the fructosyl peptidyl oxidases PnFPOX and FPOX-C on a fructosyl hexapeptide (F6P: Fru-Val-His-Leu-Thr-Pro-Glu) was assayed without addition of Proteinase N. The enzyme activity was measured in a 4AA/TODB/POD system as described in Example 2, with the substrate concentration of 1 mM for FV and FVH and 5 mM for F6P.

[6] = Oxidase activity, 4AA/TODB/POD system, substrate FK; format: biochemical; details: water-soluble fraction; POD/TODB/4A.A. method; in words
Protocol: as §1, §2

[7] = Thermostability: residual activity after heat treatment; format: physicochemical; details: heat-treated at 50° C. for 10 minutes in 10 mM PPB (pH 7.0)
Protocol: Thermostability of PnFPOX was evaluated by incubating the purified enzyme solution in 10 mM PPB (pH 7.0) at various temperatures for 10 minutes and then measuring the residual activity. The activity of PnFPOX was maintained about 75% up to 50° C. […] (Hirokawa et al. ibid).

[8] = Oxidase activity toward fructosyl hexapeptide without Proteinase N, 4AA/TODB/POD system; format: biochemical
Protocol: as §3

[9] = Oxidase activity, 4AA/TODB/POD system, substrate FV; format: biochemical
Protocol: as §1, §2, §3

[10] = substrate concentration 1 mM, 4AA/TODB/POD
[11] = water-soluble fraction, POD/TODB/4A.A. method, in words

Molecule: N[C@@H](CCCCNCC(=O)[C@@H](O)[C@H](O)[C@H](O)CO)C(=O)O [FK, fructosyl lysine]
Km ([1]; substrate FK): 10.6 mM | Vmax ([1]; substrate FK): 23.4 U/mg | Vmax ([2]; substrate FK): 0.42 U/mg

Molecule: CC(C)[C@H](NCC(=O)[C@@H](O)[C@H](O)[C@H](O)CO)C(=O)O [FV, fructosyl valine]
Km ([1]; substrate FV): 0.824 mM | Vmax ([1]; substrate FV): 66.0 U/mg | Km ([2]; substrate FV): 0.318 mM | Vmax ([2]; substrate FV): 20.6 U/mg

Molecule: fructosyl peptidyl oxidase PnFPOX from Phaeosphaeria nodorum, SEQ ID NO:1 (recombinant, purified) (Parastagonospora nodorum SN15)
Km [3]: 0.64 mM | Vmax [3]: 27.6 U/mg | Km [4]: 0.20 mM | Vmax [4]: 2.97 U/mg

Molecule: CC(C)[C@H](NCC(=O)[C@@H](O)[C@H](O)[C@H](O)CO)C(=O)N[C@@H](Cc1cnc[nH]1)C(=O)O [FVH, fructosyl valyl histidine]
Km ([1]; substrate FVH): 2.81 mM | Vmax ([1]; substrate FVH): 23.8 U/mg | Km ([2]; substrate FVH): 2.76 mM | Vmax ([2]; substrate FVH): 5.43 U/mg

VmaxKm^−1 for FVH as % of VmaxKm^−1 for FV [5]: 34% | oxidizing activity to FVH [5, 11]: showed oxidizing activity | oxidizing activity to FK [6]: showed oxidizing activity | oxidizing activity to FV [9, 11]: showed oxidizing activity
B1: PnFPOX: fructosyl peptidyl oxidase derived from Phaeosphaeria nodorum, amino acid sequence SEQ ID NO:1, recombinant from E. coli (protein, listed as Phaeosphaeria nodorum)
chain: MAPSRANTSVIVVGGGGTIGSSTALHLVRSGYTPSNVTVLDAYPIPSSQSAGNDLNKIMGVSLRNPVDLQLALEARQMWNEDELFKKFFHNTGRLDCAHGEKDIADLKSGYQALVDAGLDATNEWLDSEDEILKRMPLLSRDQIKGWKAIFSKDGGWLAAAKAINAVGEYLRDQGVRFGFYGAGSFKAPLLAEGVCIGVETVDGTRYYADKVVLAAGAWSPTLVELHEQCVSKAWVYGHIQLTPEEAARYKNSPVVYNGDVGFFFEPNEHGVIKVCDEFPGFTRFKMHQPFGAKAPKRISVPRSHAKHPTDTIPDASDVSIRRAIATFMPQFKNKKMFNQAMCWCTDTADAALLICEHPEWKNFVLATGDSGHSFKLLPNIGKHVVELLEGTLADDLAHAWRWRPGSGDALKSRRSAPAKDLADMPGWNHDKPRANL
FVH (U/mg) oxidase activity [5, 10]: 0.11 U/mg | residual activity [7]: about 75% | capability of oxidizing fructosyl hexapeptide ([8]; in words): capable of oxidizing fructosyl hexapeptide | F6P (U/mg) oxidase activity ([8]; substrate concentration 5 mM, without Proteinase N): 1.3 × 10^−3 U/mg | FV (U/mg) oxidase activity [9, 10]: 1.3 U/mg
